# Measured values published in patent publication US20050260177A1.
# What was measured:
# [1] = target: Ra12-C888P fusion protein (human C888P fused to Mycobacterium tuberculosis Ra12); assay: ELISA, RC888P on plate, serum 1:32000, well 2
# [2] = target: Ra12-C888P fusion protein (human C888P fused to Mycobacterium tuberculosis Ra12); assay: ELISA, RC888P on plate, serum 1:128000, well 2
# [3] = target: Ra12-C888P fusion protein (human C888P fused to Mycobacterium tuberculosis Ra12); assay: ELISA, RC888P on plate, serum 1:16000, average of 2 wells
# [4] = target: Ra12-C888P fusion protein (human C888P fused to Mycobacterium tuberculosis Ra12); assay: ELISA, RC888P on plate, serum 1:4000, average of 2 wells
# [5] = target: Ra12-C888P fusion protein (human C888P fused to Mycobacterium tuberculosis Ra12); assay: ELISA, RC888P on plate, serum 1:16000, well 2
# [6] = target: Ra12-C888P fusion protein (human C888P fused to Mycobacterium tuberculosis Ra12); assay: ELISA, RC888P on plate, serum 1:16000, well 1
# [7] = target: Ra12-C888P fusion protein (human C888P fused to Mycobacterium tuberculosis Ra12); assay: ELISA, RC888P on plate, serum 1:8000, well 2
# [8] = target: Ra12-C888P fusion protein (human C888P fused to Mycobacterium tuberculosis Ra12); assay: ELISA, RC888P on plate, serum 1:256000, average of 2 wells
# [9] = target: Ra12-C888P fusion protein (human C888P fused to Mycobacterium tuberculosis Ra12); assay: ELISA, RC888P on plate, serum 1:64000, average of 2 wells
# [10] = target: Ra12-C888P fusion protein (human C888P fused to Mycobacterium tuberculosis Ra12); assay: ELISA, RC888P on plate, serum 1:256000, well 1
# [11] = target: Ra12-C888P fusion protein (human C888P fused to Mycobacterium tuberculosis Ra12); assay: ELISA, RC888P on plate, serum 1:64000, well 2
# [12] = target: Ra12-C888P fusion protein (human C888P fused to Mycobacterium tuberculosis Ra12); assay: ELISA, RC888P on plate, serum 1:128000, average of 2 wells
# [13] = target: Ra12-C888P fusion protein (human C888P fused to Mycobacterium tuberculosis Ra12); assay: ELISA, RC888P on plate, serum 1:128000, well 1
# [14] = target: Ra12-C888P fusion protein (human C888P fused to Mycobacterium tuberculosis Ra12); assay: ELISA, RC888P on plate, serum 1:32000, well 1
# [15] = target: Ra12-C888P fusion protein (human C888P fused to Mycobacterium tuberculosis Ra12); assay: ELISA, RC888P on plate, serum 1:8000, well 1
# [16] = target: Ra12-C888P fusion protein (human C888P fused to Mycobacterium tuberculosis Ra12); assay: ELISA, RC888P on plate, serum 1:1024000, average of 2 wells
# [17] = target: Ra12-C888P fusion protein (human C888P fused to Mycobacterium tuberculosis Ra12); assay: ELISA, RC888P on plate, serum 1:2000, well 1
# [18] = target: Ra12-C888P fusion protein (human C888P fused to Mycobacterium tuberculosis Ra12); assay: ELISA, RC888P on plate, serum 1:8000, average of 2 wells
# [19] = target: Ra12-C888P fusion protein (human C888P fused to Mycobacterium tuberculosis Ra12); assay: ELISA, RC888P on plate, serum 1:1024000, well 1
# [20] = target: Ra12-C888P fusion protein (human C888P fused to Mycobacterium tuberculosis Ra12); assay: ELISA, RC888P on plate, serum 1:512000, well 2
# [21] = target: Ra12-C888P fusion protein (human C888P fused to Mycobacterium tuberculosis Ra12); assay: ELISA, RC888P on plate, serum 1:256000, well 2
# [22] = target: Ra12-C888P fusion protein (human C888P fused to Mycobacterium tuberculosis Ra12); assay: ELISA, RC888P on plate, serum 1:1000, average of 2 wells
# [23] = target: Ra12-C888P fusion protein (human C888P fused to Mycobacterium tuberculosis Ra12); assay: ELISA, RC888P on plate, serum 1:512000, average of 2 wells
# [24] = target: Ra12-C888P fusion protein (human C888P fused to Mycobacterium tuberculosis Ra12); assay: ELISA, RC888P on plate, serum 1:1000, well 1
# [25] = target: Ra12-C888P fusion protein (human C888P fused to Mycobacterium tuberculosis Ra12); assay: ELISA, RC888P on plate, serum 1:512000, well 1
# [26] = target: Ra12-C888P fusion protein (human C888P fused to Mycobacterium tuberculosis Ra12); assay: ELISA, RC888P on plate, serum 1:1024000, well 2
# [27] = target: Ra12-C888P fusion protein (human C888P fused to Mycobacterium tuberculosis Ra12); assay: ELISA, RC888P on plate, serum 1:32000, average of 2 wells
# [28] = target: Ra12-C888P fusion protein (human C888P fused to Mycobacterium tuberculosis Ra12); assay: ELISA, RC888P on plate, serum 1:2000, average of 2 wells
# [29] = target: Ra12-C888P fusion protein (human C888P fused to Mycobacterium tuberculosis Ra12); assay: ELISA, RC888P on plate, serum 1:4000, well 1
# [30] = target: Ra12-C888P fusion protein (human C888P fused to Mycobacterium tuberculosis Ra12); assay: ELISA, RC888P on plate, serum 1:2000, well 2
# [31] = target: Ra12-C888P fusion protein (human C888P fused to Mycobacterium tuberculosis Ra12); assay: ELISA, RC888P on plate, serum 1:1000, well 2
# [32] = target: Ra12-C888P fusion protein (human C888P fused to Mycobacterium tuberculosis Ra12); assay: ELISA, RC888P on plate, serum 1:64000, well 1
# [33] = target: Ra12-C888P fusion protein (human C888P fused to Mycobacterium tuberculosis Ra12); assay: ELISA, RC888P on plate, serum 1:4000, well 2
substance,measurement,setting,value
Preimmune sera (antibody),ELISA absorbance at 450 nm,[1],0.05 OD450
same,ELISA absorbance at 450 nm,[2],0.06 OD450
same,ELISA absorbance at 450 nm,[3],0.06 OD450
same,ELISA absorbance at 450 nm,[4],0.06 OD450
same,ELISA absorbance at 450 nm,[5],0.05 OD450
same,ELISA absorbance at 450 nm,[6],0.06 OD450
same,ELISA absorbance at 450 nm,[7],0.06 OD450
same,ELISA absorbance at 450 nm,[8],0.06 OD450
same,ELISA absorbance at 450 nm,[9],0.06 OD450
same,ELISA absorbance at 450 nm,[10],0.06 OD450
same,ELISA absorbance at 450 nm,[11],0.05 OD450
same,ELISA absorbance at 450 nm,[12],0.06 OD450
same,ELISA absorbance at 450 nm,[13],0.06 OD450
same,ELISA absorbance at 450 nm,[14],0.06 OD450
same,ELISA absorbance at 450 nm,[15],0.06 OD450
same,ELISA absorbance at 450 nm,[16],0.06 OD450
same,ELISA absorbance at 450 nm,[17],0.06 OD450
same,ELISA absorbance at 450 nm,[18],0.06 OD450
same,ELISA absorbance at 450 nm,[19],0.06 OD450
same,ELISA absorbance at 450 nm,[20],0.05 OD450
same,ELISA absorbance at 450 nm,[21],0.06 OD450
same,ELISA absorbance at 450 nm,[22],0.07 OD450
same,ELISA absorbance at 450 nm,[23],0.06 OD450
same,ELISA absorbance at 450 nm,[24],0.09 OD450
same,ELISA absorbance at 450 nm,[25],0.06 OD450
same,ELISA absorbance at 450 nm,[26],0.06 OD450
same,ELISA absorbance at 450 nm,[27],0.06 OD450
same,ELISA absorbance at 450 nm,[28],0.06 OD450
same,ELISA absorbance at 450 nm,[29],0.06 OD450
same,ELISA absorbance at 450 nm,[30],0.05 OD450
same,ELISA absorbance at 450 nm,[31],0.06 OD450
same,ELISA absorbance at 450 nm,[32],0.06 OD450
same,ELISA absorbance at 450 nm,[33],0.05 OD450
